Publication PMC5018835

What was measured:
[1] = target: Hsp82p:Hsp82p^V391E/LL heterodimer (S. cerevisiae), P02829
[2] = target: Hsp82p:Hsp82p^LL heterodimer (S. cerevisiae), P02829

B1: Aha1p (full length, N-terminal 6xHis tag), Q12449 1-350 (natural protein)
chain: MVVNNPNNWHWVDKNCIGWAKEYFKQKLVGVEAGSVKDKKYAKIKSVSSIEGDCEVNQRKGKVISLFDLKITVLIEGHVDSKDGSALPFEGSINVPEVAFDSEASSYQFDISIFKETSELSEAKPLIRSELLPKLRQIFQQFGKDLLATHGNDIQVPESQVKSNYTRGNQKSSFTEIKDSASKPKKNALPSSTSTSAPVSSTNKVPQNGSGNSTSIYLEPTFNVPSSELYETFLDKQRILAWTRSAQFFNSGPKLETKEKFELFGGNVISELVSCEKDKKLVFHWKLKDWSAPFNSTIEMTFHESQEFHETKLQVKWTGIPVGEEDRVRANFEEYYVRSIKLTFGFGAVL
[1]
  apparent affinity (Kapp) from the fit of ATPase stimulation of Hsp82p:Hsp82p^V391E/LL heterodimers (1 μM + 5 μM) against Aha1p concentration (Fig. 3E): 0.8 µM

B2: Hch1p (N-terminal 6xHis tag), P53834 1-153 (natural protein)
chain: MVVLNPNNWHWVDKNTLPWSKDYLNGKLTSLSTVSSDGKSKIELTQVSSITGDSNVSQRKGKPICYFDLQLSMNVKVTNLDTNKDDEDDDGILADGKLEIPEFMHDESDIPILSQGFDAFDGLVRSEFVPKVVETLLKYQDDLIKEHSKDIQV
[2]
  inhibition of the ATPase activity of Hsp82p:Hsp82p^LL heterodimers (1 μM + 5 μM) by titrated Hch1p (~16% at 2.5 μM, ~11% at 5 μM, overcome at higher concentrations; Fig. 2C): 16%
